# According to patent US20120321609A1, “METHOD OF TREATING PSYCHOLOGICAL DISORDERS” (priority 2011, published 2012):
# Legend:
# 5-HT2AR = biological target: T1, 5-HT2AR (Homo sapiens, UniProt P28223); test: 5-HT-stimulated inositol phosphate formation in HEK 293 cells transfected with FLAG-5-HT2AR and HA-CRFR1; assay type: cell-based
# T1 construct: expressed in transfected cells; host or cells: HEK 293
# 5-HT2CR = biological target: T2, 5-HT2CR (Homo sapiens, UniProt P28335); test: 5-HT-stimulated inositol phosphate formation in HEK 293 cells transfected with FLAG-5-HT2CR and HA-CRFR1; assay type: cell-based
# T2 construct: expressed in transfected cells; host or cells: HEK 293
# T2 sequence (P28335 33-458): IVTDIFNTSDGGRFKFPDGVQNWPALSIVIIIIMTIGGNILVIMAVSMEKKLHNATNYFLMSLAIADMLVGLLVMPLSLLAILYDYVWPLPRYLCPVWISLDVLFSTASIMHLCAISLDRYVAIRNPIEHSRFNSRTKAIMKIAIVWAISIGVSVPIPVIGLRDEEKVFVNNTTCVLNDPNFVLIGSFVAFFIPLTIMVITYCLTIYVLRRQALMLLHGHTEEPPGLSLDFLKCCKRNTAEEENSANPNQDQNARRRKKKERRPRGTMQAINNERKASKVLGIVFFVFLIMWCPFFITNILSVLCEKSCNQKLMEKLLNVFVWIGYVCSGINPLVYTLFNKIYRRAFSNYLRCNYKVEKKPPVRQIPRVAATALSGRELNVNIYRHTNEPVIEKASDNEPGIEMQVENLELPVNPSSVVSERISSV
# mice = test: Open field test (anxiety-related behaviour); assay type: in vivo, mouse; settings: 5 min test; CRF 1.5 μg into medial prefrontal cortex, DOI 0.15 mg/kg i.p.; vs vehicle-vehicle or single treatment
# Procedure: Male CD-1 mice were obtained from Charles River Canada (St. Constant, Quebec) at 50-60 days of age, and were acclimatized to the laboratory for approximately 30 days before serving as experimental subjects. Mice were housed four per cage, until the time of surgery, after which they were housed individually. The vivarium was maintained on a 12-h light/dark cycle in a temperature (21° C.) controlled room with food and water freely available. Mice were anesthetized using isoflurane and stereotaxic surgery (David Kopf Instruments Model 940) was performed to install a cannulae into the medial prefrontal cortex. A Guide cannulae (Plastics One In), situated according to the mouse atlas of Franklin and Paxinos at Lateral=0.32 mm, D/V=2.25 mm, A/P=+2.68 mm. A dummy cannula, was inserted flush with guide. Approximately 1 week after behavioral testing mice were perfused with 4% paraformaldehyde. […]
# In an initial test, mice were placed in a 45×45 cm open field, with an inner square of 21×24×24 cm., for a 5 min period, during which the time to enter the center area, and the total time spent in the center portion of the arena was recorded. […] Mice were individually placed in one of the enclosed arms of a plus-maze and the behavior of the animals was recorded over a 5 min period by a ceiling-mounted video camera. […]
# HA-CRFR1 = biological target: T3, HA-CRFR1 (Homo sapiens, UniProt P34998); test: Receptor endocytosis by flow cytometry in HEK 293 cells; assay type: cell-based; settings: 500 nM CRF for 30 min at 37° C.; cells expressing only wild-type CRFR1
# T3 construct: expressed in transfected cells; host or cells: HEK 293
# T3 sequence (P34998 24-415): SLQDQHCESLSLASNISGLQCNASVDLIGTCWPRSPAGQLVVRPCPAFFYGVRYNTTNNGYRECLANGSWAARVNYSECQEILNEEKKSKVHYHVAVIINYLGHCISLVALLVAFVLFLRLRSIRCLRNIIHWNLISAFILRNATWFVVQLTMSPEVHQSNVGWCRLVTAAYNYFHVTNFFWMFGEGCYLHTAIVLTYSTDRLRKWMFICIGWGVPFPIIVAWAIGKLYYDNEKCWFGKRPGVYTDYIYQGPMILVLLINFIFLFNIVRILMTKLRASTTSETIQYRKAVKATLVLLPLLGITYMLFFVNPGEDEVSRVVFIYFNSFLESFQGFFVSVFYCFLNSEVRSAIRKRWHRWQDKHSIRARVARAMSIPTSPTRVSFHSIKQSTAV
# Procedure: Cells were seeded on 10 cm dishes at 70-80% density 24 h prior to transfection. Transfection was performed using a modified calcium phosphate method, as described previously (Ferguson et al. (2004) Methods Mol. Biol. 237, 121-126). 1 μg of each construct was used for each transfection, with the exception that 3 μg of plasmid cDNA was used for all shRNA constructs. Empty pcDNA3.1 vector was used to equalize the total amount of plasmid cDNA used to transfect cells. 18 h post-transfection, cells were washed with phosphate buffered saline (PBS) and re-suspended with Trypsin 0.25% EDTA. Cells were then reseeded for experimentation. All experiments were conducted approximately 48 h after the initial transfection, with exception of transfections involving SAP97 shRNA, which were conducted 72 h after initial transfection to optimize the knockdown of endogenous SAP97, as confirmed by Western blotting.
# Following transfection, HEK 293 cells were re-seeded into 12-well plates. […] Cells were washed with cold HBSS and treated with mouse anti-HA antibody (1:500) for 45 min on ice. […] Samples were run on a FACSCalibur cytometer using BD CellQuest Pro software until 10,000 cells were counted. The geometric mean of fluorescence was determined using FlowJo analysis software, with less fluorescence corresponding to less CRFR1 on the membrane.
# T1 sequence (P28223 whole entry): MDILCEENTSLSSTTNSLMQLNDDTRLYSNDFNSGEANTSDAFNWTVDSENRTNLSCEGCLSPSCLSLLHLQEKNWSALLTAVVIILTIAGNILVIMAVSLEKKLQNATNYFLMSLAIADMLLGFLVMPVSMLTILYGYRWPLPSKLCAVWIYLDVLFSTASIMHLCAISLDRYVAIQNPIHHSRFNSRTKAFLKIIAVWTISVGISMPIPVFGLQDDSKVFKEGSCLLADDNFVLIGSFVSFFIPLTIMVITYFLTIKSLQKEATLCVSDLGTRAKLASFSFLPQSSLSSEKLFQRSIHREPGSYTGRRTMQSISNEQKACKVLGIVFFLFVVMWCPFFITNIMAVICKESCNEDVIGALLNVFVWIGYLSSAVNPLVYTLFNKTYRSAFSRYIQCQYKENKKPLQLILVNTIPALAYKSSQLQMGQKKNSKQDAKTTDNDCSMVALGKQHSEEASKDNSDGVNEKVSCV
substance,measurement,setting,value
CRF: 41 amino acid peptide that activates the HPA axis; agonist of CRF receptors,increase in maximum efficacy (EMAX) for 5-HT2AR-stimulated inositol phosphate formation,"5-HT2AR; CRF pretreatment 500 nM for 30 min, cells expressing 5-HT2AR along with CRFR1",40±4.7%
same,"effect of pretreatment on 5-HT dose-response curve for inositol phosphate formation, 5-HT2AR","5-HT2AR; HEK 293 cells expressing 5-HT2AR in the absence of CRFR1, CRF 500 nM 30 min",had no effect
same,inositol phosphate formation by CRF treatment itself,"5-HT2CR; CRF 500 nM 30 min, cells expressing 5-HT2CR alone, CRFR1 alone or both receptors",did not result in inositol phosphate formation
same,increase in maximum efficacy (EMAX) for 5-HT2CR-stimulated inositol phosphate formation,"5-HT2CR; CRF pretreatment 500 nM for 30 min, cells expressing 5-HT2CR along with CRFR1",47±5.5%
same,"effect of pretreatment on 5-HT dose-response curve for inositol phosphate formation, 5-HT2CR","5-HT2CR; HEK 293 cells expressing 5-HT2CR in the absence of CRFR1, CRF 500 nM 30 min",had no effect
same,latency to enter the center square of open field,mice,neither the CRF nor the DOI treatments alone influenced performance
same,loss of cell surface HA-CRFR1,HA-CRFR1,24±4%
